What all share (conditions): tags: His-tag, Abcam ab198455, labeled with RED-Tris-NTA
In data set [1] the target is T1, PHGDH (D-3-phosphoglycerate dehydrogenase) (Homo sapiens, UniProt O43175 SEQ:1-533).
T1 sequence: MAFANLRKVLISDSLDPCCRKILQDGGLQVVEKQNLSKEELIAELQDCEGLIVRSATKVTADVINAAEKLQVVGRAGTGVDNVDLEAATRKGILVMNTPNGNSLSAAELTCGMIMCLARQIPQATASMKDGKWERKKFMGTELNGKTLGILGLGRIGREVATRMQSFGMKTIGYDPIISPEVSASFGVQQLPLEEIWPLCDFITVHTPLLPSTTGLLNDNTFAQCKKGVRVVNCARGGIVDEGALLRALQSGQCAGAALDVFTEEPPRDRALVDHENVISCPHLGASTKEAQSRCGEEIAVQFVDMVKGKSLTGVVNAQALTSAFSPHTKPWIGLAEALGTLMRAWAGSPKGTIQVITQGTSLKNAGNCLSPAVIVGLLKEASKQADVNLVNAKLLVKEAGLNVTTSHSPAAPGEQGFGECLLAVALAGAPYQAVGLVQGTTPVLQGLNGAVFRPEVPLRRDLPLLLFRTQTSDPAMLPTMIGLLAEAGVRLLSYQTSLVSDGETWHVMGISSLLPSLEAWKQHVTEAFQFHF
The data set is described as follows: MST; low response amplitude; no AU-rich elements; RNA up to 850 nM, same buffer. The method, then:
(§1) Microscale thermophoresis experiments were performed using a NanoTemper® Monolith NT.115 (NanoTemper Tenchologies, Germany) with blue and red filters. His-tagged PHGDH protein was labeled using the Monolith His-Tag labeling Kit RED-Tris-NTA 2nd generation (SKU: MO-L018), according to manufacturer's protocol (Step B, Step C). Briefly, 90 μl of PHGDH protein (200 nM) was mixed with 90 μl of dye (100 nM) and incubated for 30 min at RT. Samples were centrifuged for 10 min at 4° C. at 15.000×g and transferred into a fresh tube. RNA was brought to a concentration of 1700 nM and a serial dilution of 1:2 over 16 steps in binding buffer (10 mM Tris HCl, 50 mM KCl, 0.5 mM EDTA, 0.1 mg/ml BSA, 10% (v/v) Rnase/Dnase free glycerol) was performed. Fluorescently labeled protein was added at a final concentration of 50 nM to each tube. 16 capillaries were loaded with IRF1 3′UTR RNA (highest concentration 850 nM) and PHGDH protein (50 nM). Samples were measured with the following settings: 20% LED/excitation and medium MST power. At the final dye concentration of 25 nM, the expected fluorescence intensity at 20% LED/excitation is around 300 counts on a Monolith NT.115.

Data set [2] has as its target T1, PHGDH (D-3-phosphoglycerate …). The data set is described as follows: MST; high response amplitude; fitted to Kd model but no value given; 50 nM PHGDH, RNA 13-850 nM; 10 mM Tris HCl, 50 mM KCl, 0.5 mM EDTA, 0.1 mg/ml BSA, 10% glycerol. The protocol: (§2) Data were fitted to the Kd model.
as §1

Data set [3] shares this target. The data set is described as follows: MST; mutation impeded binding; RNA up to 850 nM, same buffer. The method, then: as §2, §1

Turning to ACAUGUGCCAGCUAAGCACUUGAAAUGUGGCCAGUGCAAUA (ssRNA) [IRF1 3'UTR fragment 4 (Fg4)], the binding result in data set [1] was “no binding”.

In the case of AGGAAUUGAACUUUUAAUUGCAUUUAAUAAACUGUAUGUAAAUAGUCA (ssRNA) [IRF1 3'UTR fragment 3 (Fg3)], the binding result in data set [2] was “binds”. As to AGGAAUUGAACCCUUAAUUGCAUUUAAUAAACUGUAUGUAAAUAGUCA (ssRNA) [mutated fragment 3 (muFg3)], the binding result in data set [3] is given as “no binding”.

For the origin of these results see patent US20250228941, “CELLULAR THERAPY” (UNIVERSITÄt BASEL, published 2025).
